Measurements as given in the supplement of paper PMC9170038.

Assays:
MS2 coat protein [1] = test: apparent KD of MS2 coat protein, switch ON state; designed switch direction (-1 OFF switch, 1 ON switch): 1; higher = weaker reporter binding; conditions: FMN input: 0 or 200 uM; Eterna round: R93 (includes R88 designs)
Summary of the method: (§1)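 With or without constant ligand, designed RNA switches in 100 mM Tris-HCl pH 7.5, 80 mM KCl and 4 mM MgCl2 were titrated with SNAP-549-labelled MS2 coat protein. Concentrations went up in twofold steps from 0.7 or 1.5 nM to 3 µM. The switches had been transcribed on-chip from Illumina sequencing clusters, and apparent KD is the per-design median of normalised cluster binding-curve fits.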

MS2 coat protein [2] = test: apparent KD of MS2 coat protein, switch OFF state (with FMN for OFF switches, without FMN for ON switches); designed switch direction (-1 OFF switch, 1 ON switch): 1; higher = weaker reporter binding; conditions: FMN input: 0 or 200 uM; Eterna round: R93 (includes R88 designs)
Summary of the method: as §1

| Sequence | apparent KD of MS2 coat protein (MS2 coat protein [1]) [nM] | apparent KD of MS2 coat protein (MS2 coat protein [2]) [nM] |
| --- | --- | --- |
| AAAAGACAUGAGGAUCACCCAUGUCAAGACAUAGGAGGAUAUGUCGUGAAAAAAGACUUGGCAGAAGGCCUUUGUC [SS1 - 47] | 14.3 | 16.1 |
| UGGAGACAUGAGGAUCACCCAUGUGAGAAGAGGCGAGGAUAUCGAAAGAAAGAAGAGAAACGAGAAGGCGCGAGCU [salish99-SS1-037] | 22.4 | 36.1 |
| AGGAGACAUGAGGAUCACCCAUGUGAGAAGAGGCGAGGAUAUCGAAAGAAAGAAGAGAAACGAGAAGGCGCGAGAA [salish99-SS1-017] | 15 | 30.3 |
| GAGAAGAAGAGAGAGGAUAUCCAAAGGAAAACAUGAGGAUCACCCAUGUAAAAGGUAGGAAAUUGGGAGAAGGCUCAGAAGAGGG [salish99-ss2-030] | 23.2 | 26.6 |
| AAACCACAUGAGGAUCACCCAUGUAAAAUAUACAUAGGAUAUGCGAAAAGAAACAAAGAAGCAGAAGGGUGAAAAA [75%, Ex sub1, 16] | 36.4 | 32.1 |
| GGGAGGAAGAGAGAGGAUAUCCAAAGGAAAACAUGAGGAUCACCCAUGUAAAAGGUAGGAAAUUGGGAGAAGGCUCAAAAGAGGA [salish99-ss2-039] | 31.3 | 30.3 |
| GGCUGCGUUGUGAAGGAUAUCCGCGUCUGGACAUGAGGAUCACCCAUGUAUACUUGGAUCGUGCAGGAGAAGGUCAAGGGUGAUU [JR_SS002_Sub1211] | 130 | 63.3 |
| AAAAUAAAAAGGCAGGAUAUCCAAAAUAAAACAUGAGGAUCACCCAUGUAAAUAAAAAUAAAGUGGGAGAAGGGUUAAAAAUAAAA [High Roller3] | 32.5 | 46.8 |
| AGAAAUAAAAGAGAGGAUAUUCAAAAAGGGACAUGAGGAUCACCCAUGUAAAAGAAAAUAAAAUGGGAGAAGGCUCAAAAUAAAG [80%, More Helter Skelter 2] | 85.5 | 61.7 |
| GAAAAACAUGAGGAUCACCCAUGUGAGAAUAUGGGAGGAUAUACAAAGACGAAAGUCAAAGUAGAAGGCCUAAAAG [Mat - Same State 1 - Eli mod - D6] | 27.6 | 94.5 |
| AUAUAUAAAAGGUAGGAUAUUCUAAAAUAAACAUGAGGAUCACCCAUGUAAAAAAAGAAACUCAUGGAGAAGGACCAUAUAUAUA [ss2 6th modifying Eli's mod of Tesla] | 31.5 | 44.5 |
| AUAUAUAUAAGGUAGGAUAUCCAAUAAACCACAUGAGGAUCACCCAUGUAAAGAAAGAAAAAAUGGGAGAAGGACCAUAUAUAUA [77%, More Tesla, 6] | 15.4 | 27.5 |
| AAAUAAAUGACUAAGGAUAUUUCAGAGAAAACAUGAGGAUCACCCAUGUAAUAAUAAAAAGGGUGAGAGAAGGUAGUCAACAAAC [74%, More Paria 4] | 13.8 | 25.7 |
| AUAUAUAUAAGGUAGGAUAUCCAAUAAUCCACAUGAGGAUCACCCAUGUAAAGAAAGAAAAAGUGGGAGAAGGACCAUAUAUAUA [77%, More Tesla, 7] | 17.6 | 34 |
| AGGAAACAUGAGGAUCACCCAUGUAAAAAUAUGGGAGGAUAUACAAAGACGAAAGUAAGAGUAGAAGGCCUAAAAG [Garnet 16] | 31.3 | 150 |
| AUAAGACAUGAGGAUCACCCAUGUAUUAGAGCAUGAGGAUAUAUGAAUAGUAAUAGGAGGAUAGAAGGCAUGGUUG [JR_SS001_Sub1218] | 92.6 | 138 |
| UAAAAACAUGAGGAUCACCCAUGUGAGAACAUGGGAGGAUAUACGAAGACGAAAGUCAAAGUAGAAGGCCUAAAAU [Mat - Same State 1 - Mod - D171] | 302 | 15.6 |
| AAAGAAAAACUAGAGGAUAUUUGAGUGGUAACAUGAGGAUCACCCAUGUGAAGAAAAGAACAUGAGGAGAAGGCUAGAAGAAAAA [JL Nando mod 15] | 23.1 | 42.3 |
| AGAAAUAAAAGAGAGGAUAUCCAAAACAAAACAUGAGGAUCACCCAUGUGAAAGAAAAUAAAAUGGGAGAAGGCUCAAAAUAAAG [Topaz 8] | 8.35 | 70.4 |
| GAUAAACAUGAGGAUCACCCAUGUAGAUAUAUGGGAGGAUAUACAUAGACGAUAGUCAUAGUAGAAGGCCUAAUAG [77%, Mat - Mod of Eli - With 6 more U's] | 35.6 | 119 |
| AUUUAACAUGAGGAUCACCCAUGUAGGAAUACUGCAGGAUAUCGACACGAAAAUACGUGUCGAGAAGGGCAUGAAA [SS1 MT 25] | 13.8 | 22 |
